# From doi:10.1101/2023.06.19.545293 (2023)
# T1: ZnF domain of A. thaliana SPL5 (Ser60-Leu127) (A. thaliana, UniProt Q9S758 60-127)
# T1 chain: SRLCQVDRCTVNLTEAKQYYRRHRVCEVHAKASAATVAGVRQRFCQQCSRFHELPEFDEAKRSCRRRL
# B1: SAP05 (mature, Ala33-Lys135) of Aster Yellows phytoplasma strain Witches Broom (natural protein)
# chain: APNEEFVGDMRIVNVNLSNIDILKKHETFKKYFDFTLTGPRYNGNIAEFAMIWKIKNPPLNLLGVFFDDGTRDDEDDKYILEELKQIGNGAKNMYIFWQYEQK
# What was measured:
# [1] = target: T1, ZnF domain of A. thaliana SPL5 …; experiment: ITC; 25 °C, repeat 1
# [2] = target: T1, ZnF domain of A. thaliana SPL5 …; experiment: ITC; 25 °C, repeat 2
binder,measurement,setting,value
B1,Kd,[1],510 nM
same,Kd,[2],388 nM
